Assay results taken from patent US20180362668A1 (JIANGSU ALPHAMAB BIOPHARMACEUTICALS, published 2018).
Numbering of substitutions follows the chain as printed. Numbers in names are those of the source.

B1: VhH-Fc fusion protein chain B with T366S + L368G + Y407A + K409A (Fc fusion)
chain: QVQLQESGGGSVQAGGSLRLSCAASEYIYSSYCMAWFRQAPGKEREGVAVIGSDGSTSYADSVKGRFTISKDNAKNTLYLQMNSLKPEDTAMYYCAAIGGYCYQPPYEYQYWGQGTQVTVSSEPKSSDKTHTCPPCPAPELLGGPSVFLFPPKPKDTLMISRTPEVTCVVVDVSHEDPEVKFNWYVDGVEVHNAKTKPREEQYNSTYRVVSVLTVLHQDWLNGKEYKCKVSNKALPAPIEKTISKAKGQPREPQVYTLPPSRDELTKNQVSLSCGVKGFYPSDIAVEWESNGQPENNYKTTPPVLDSDGSFFLASALTVDKSRWQQGNVFSCSVMHEALHNHYTQKSLSLSPGK
notes: Positions are EU index; also called combination 16 chain B
B2: VhH-Fc fusion protein chain B with T366S + L368G + Y407A + F405K (Fc fusion)
chain: B1 chain with F312K, A316K
notes: Positions are EU index; also called combination 11 chain B
B3: ScFv-Fc fusion protein chain A with Y349C + T366W + K409A (Fc fusion)
chain: EVQLLESGGGVVQPGRSLRLSCIASGFTFSSYPMTWVRQAPGKGLEWVASISYDGSYKYKADSMKGRLTISRDNSKNTLYLEMNSLTAEDTAVYYCARTAFFNAYDFWGQGTLVTVSSASTKGPSVGGGGSGGGGSEIVMTQSPATLSVSPGERATLSCRASQSVRSNLAWYQQKPGQAPRLLIYAASTRATGIPARFSGSGSGTEFTLTISSLQSEDFAVYYCQQYNEWFRTSGQGTKVEIKRDKTHTCPPCPAPELLGGPSVFLFPPKPKDTLMISRTPEVTCVVVDVSHENPEVKFNWYVDGVEVHNAKTKPREEQYNSTYRVVSVLTVLHQDWLNGKEYKCKVSNKALPAPIEKTISKAKGQPREPQVCTLPPSRDELTKNQVSLWCLVKGFYPSDIAVEWESNGQPENNYKTTPPVLDSDGSFFLYSALTVDKSRWQQGNVFSCSVMHEALHNHYTQKSLSLSPGK
notes: Positions are EU index; also called combination 4 chain A
B4: ScFv-Fc fusion protein chain A with T366W + F405K + D399S (Fc fusion)
chain: B3 chain with C373Y, D423S, F429K, A433K
notes: Positions are EU index; also called combination 15 chain A
B5: ScFv-Fc fusion protein chain A with Y349C + T366W + F405K (Fc fusion)
chain: B3 chain with F429K, A433K
notes: Positions are EU index; also called combination 2 chain A
B6: ScFv-Fc fusion protein chain A with T366W + F405K (Fc fusion)
chain: B3 chain with C373Y, F429K, A433K
notes: Positions are EU index; also called combination 16 chain A
B7: ScFv-Fc fusion protein chain A with T366W + F405K + Y349D + S354D (Fc fusion)
chain: B3 chain with C373D, S378D, F429K, A433K
notes: Positions are EU index; also called combination 18 chain A
B8: ScFv-Fc fusion protein chain A with Y349C + T366W + K409E (Fc fusion)
chain: B3 chain with A433E
notes: Positions are EU index; also called combination 3 chain A
B9: ScFv-Fc fusion protein chain A with Y349C + T366W (Fc fusion)
chain: B3 chain with A433K
notes: also called combination KH chain A; combination 1 chain A

Legend:
[1] = target: the molecule itself; assay: non-reducing SDS-PAGE densitometry of Protein A-purified co-transfection product; chain A:chain B vectors 1:1
From the text: (§1) The cotransfection ratio of recombinant expression vector of the chain A to that of the chain B was 4:1, 1:1 and 1:4. The transiently expressed culture supernatant was collected after 5-6 days of cultivation.

[2] = target: the molecule itself; assay: non-reducing SDS-PAGE densitometry of Protein A-purified co-transfection product; chain A:chain B vectors 4:1
From the text: as §1

[3] = target: the molecule itself; assay: non-reducing SDS-PAGE densitometry of Protein A-purified co-transfection product; chain A:chain B vectors 1:4
From the text: as §1

[4] = target: the molecule itself; assay: non-reducing SDS-PAGE densitometry of Protein A-purified co-transfection product; chain A:chain B vectors 1:1; remark: listed apart in the source
From the text: (§2) The cotransfection ratio of recombinant expression vector of the chain A to that of the chain B was 4:1, 1:1 and 1:4.

[5] = target: the molecule itself; assay: non-reducing SDS-PAGE densitometry of Protein A-purified co-transfection product; chain A:chain B vectors 1:4; remark: listed apart in the source
From the text: as §2

[6] = target: the molecule itself; assay: non-reducing SDS-PAGE densitometry of Protein A-purified co-transfection product; chain A:chain B vectors 4:1; remark: listed apart in the source
From the text: as §2

[7] = target: the molecule itself; assay: non-reducing SDS-PAGE densitometry of Protein A-purified co-transfection product; chain A:chain B vectors 1:1; remark: listed apart in the source
From the text: The cotransfection ratio of recombinant expression vector of the chain A to that of the chain B was 1:1.

[8] = target: the molecule itself; assay: as above; remark: listed apart in the source
[9] = target: the molecule itself; assay: non-reducing SDS-PAGE of Protein A-purified co-transfection product; chain A:chain B vectors 1:4
From the text: (§3) The respective transient transfection products were obtained through Protein A affinity chromatography.

[10] = target: the molecule itself; assay: non-reducing SDS-PAGE of Protein A-purified co-transfection product; chain A:chain B vectors 4:1
From the text: as §3

Row | Protein | ScFv-Fc homodimer (%) [8] [%] | ScFv-Fc homodimer (%) [9] [%] | ScFv-Fc homodimer (%) [10] [%] | ScFv-Fc homodimer (%) [1] [%] | ScFv-Fc homodimer (%) [2] [%] | ScFv-Fc homodimer (%) [3] [%] | also measured
1 | B1 |  |  |  |  |  |  | VhH-Fc homodimer (%) [1]: 7%; VhH-Fc homodimer (%) [2]: < 1%; VhH-Fc homodimer (%) [3]: 4%
2 | B2 |  |  |  |  |  |  | VhH-Fc homodimer (%) [4]: 0%; VhH-Fc homodimer (%) [5]: 0%; VhH-Fc homodimer (%) [6]: 0%
3 | B3 | 10 | 4 | 46 |  |  |  | ScFv-Fc homodimer (%) [7]: 21%; ScFv-Fc homodimer (%) [4]: 13%; ScFv-Fc homodimer (%) [5]: < 1%; ScFv-Fc homodimer (%) [6]: 46%
4 | B4 |  |  |  | 6 | 28 | < 1 | 
5 | B5 | 10 | < 1 | 23 | 9 | 28 | < 1 | ScFv-Fc homodimer (%) [7]: 17%
6 | B6 |  |  |  | 5 | 23 | 3 | 
7 | B7 |  |  |  | 9 | 29 | 5 | 
8 | B8 | 25 |  |  |  |  |  | 
9 | B9 |  | 10 | 52 |  |  |  | 
